# Source: US20230220399
# Read-outs that look alike come from different tables or passages of the source.
# Legend:
# Settings in all cases: ELISA, SB18, 37 C
# [1] = target: human serum albumin (HSA) (Homo sapiens) (UniProt P02768)
# [2] = target: 4-1BB (TNFRSF9) (Homo sapiens) (UniProt Q07011)
# [3] = target: PD-L1 (B7-H1) (Homo sapiens) (UniProt Q9NZQ7)
# KRAS G12D G12D, P01116-2 = tested on: KRAS G12D G12D, P01116-2
# [4] = Nap-dU at n (6) positions [5,10,11,12,18,20,22,24]
# [5] = Nap-dU at n (6) positions [5,10,11,12,18,20,22,24,32]
# [6] = Nap-dU at n (6) positions [Nap-dU at 24,31,33,36,39,40,43,52]
# [7] = Nap-dU at n (6) positions [5,11,13,19,21,23,28]
# [8] = Nap-dU at n (6) positions [5,11,13,19,21,23,28,36,38]
# [9] = Nap-dU at n (6) positions [5,11,13,19,21,23,28,36,38,42-44]
# [10] = Nap-dU at n (6) positions [5,11,13,19,21,23,28,36,38,42,43,44,45]
# [11] = Nap-dU at n (6) positions [5,11,13,19,21,23,28,36,38,42-45,52,54]
# [12] = Nap-dU at n (6) positions [5,11,13,19,21,23,28,36,37,39,44,45,50,52,54]
# [13] = Nap-dU at n (6) positions [8,10-11,13,18-19,24,26,29]
# [14] = Nap-dU at n (6) positions [8,10-11,13,18-19,24,26,29,36,39]
# [15] = Nap-dU at n (6) positions [3,5-6,8,13-14,19,21,24]
# [16] = Nap-dU at n (6) positions [5,7,9,14,22,24,28,29,30,31,38,40]
# [17] = Nap-dU at n (6) positions [2,4,10,12,14,19,27,29,33,34,35,36,43,45]
# [18] = Nap-dU at n (6) positions [4,9,13,19,26,27,28,30]
# [19] = Nap-dU at n (6) positions [Nap-dU at 29,36,38,41,44,45,48,57]
# [20] = Nap-dU at n (6) positions [16,25,27-28,30,35-36,41,43,46,53,56]
# [21] = Nap-dU at n (6) positions [12,21,26,30,36,43,44,45,47,56]
# Chain of PD-L1 (B7-H1) (Homo sapiens) (Q9NZQ7 19-238): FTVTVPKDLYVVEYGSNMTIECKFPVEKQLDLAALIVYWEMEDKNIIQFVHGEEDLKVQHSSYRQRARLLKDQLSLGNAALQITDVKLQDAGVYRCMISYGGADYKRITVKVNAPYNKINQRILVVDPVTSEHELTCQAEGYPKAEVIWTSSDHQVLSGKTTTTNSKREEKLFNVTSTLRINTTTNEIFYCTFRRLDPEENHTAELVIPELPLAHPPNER
# Chain of 4-1BB (TNFRSF9) (Homo sapiens) (Q07011 24-186): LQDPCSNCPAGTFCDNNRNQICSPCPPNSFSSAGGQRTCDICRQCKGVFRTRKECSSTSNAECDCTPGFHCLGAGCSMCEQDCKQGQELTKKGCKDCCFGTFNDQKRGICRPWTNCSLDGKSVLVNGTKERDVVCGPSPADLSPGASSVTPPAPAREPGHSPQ
sequence,measurement,setting,value
AACCTCGCCTTTACAACTATATCTGACGAAC [AB005],Kd,[1]; [4],53.5 nM
same,Kd,[2]; [4],0.12 nM
AACCTCGCCTTTACAACTATATCTGACGAACTAACA [AB004],Kd,[1]; [5],102 nM
same,Kd,[2]; [5],0.05 nM
ACCGTCTGCCTGACAACAACGAGTGCGAACTGTACTACTTGATAGAGACCCTCAGCCACACCACCAGCC [AP021],Kd,[3]; [6],130 nM
same,Kd,[1]; [6],15.6 nM
CAGGTCGAGCTGTACGCGTGTGTGACCTGAAGAC [AD043],Kd,[1]; [7],4.18 nM
same,Kd,"KRAS G12D G12D, P01116-2; [7]",263 nM
CAGGTCGAGCTGTACGCGTGTGTGACCTGAAGACGTATA [AD044],Kd,[1]; [8],2.93 nM
same,Kd,"KRAS G12D G12D, P01116-2; [8]",1580 nM
CAGGTCGAGCTGTACGCGTGTGTGACCTGAAGACGTATAACTTT [AD045],Kd,[1]; [9],0.73 nM
same,Kd,"KRAS G12D G12D, P01116-2; [9]",20 nM
CAGGTCGAGCTGTACGCGTGTGTGACCTGAAGACGTATAACTTTTACAG [AD046],Kd,[1]; [10],0.65 nM
same,Kd,"KRAS G12D G12D, P01116-2; [10]",5.38 nM
CAGGTCGAGCTGTACGCGTGTGTGACCTGAAGACGTATAACTTTTACAGAATCTACA [AD032],Kd,[1]; [11],0.68 nM
same,Kd,"KRAS G12D G12D, P01116-2; [11]",15.5 nM
CAGGTCGAGCTGTACGCGTGTGTGACCTGCCCCACTTCTGACATTAGACTGTGTAGA [AD034],Kd,[1]; [12],0.59 nM
same,Kd,"KRAS G12D G12D, P01116-2; [12]",473 nM
CCCCGCCTCTTCTGAAGTTAACATGTGCTCC [AD014],Kd,[1]; [13],28.8 nM
same,Kd,"KRAS G12D G12D, P01116-2; [13]",1.95 nM
CCCCGCCTCTTCTGAAGTTAACATGTGCTCCGAGA [AD012],Kd,[1]; [13],28.7 nM
same,Kd,"KRAS G12D G12D, P01116-2; [13]",23.1 nM
CCCCGCCTCTTCTGAAGTTAACATGTGCTCCGAGATGGTA [AD011],Kd,[1]; [14],5.46 nM
same,Kd,"KRAS G12D G12D, P01116-2; [14]",9.46 nM
CCTCTTCTGAAGTTAACATGTGCTCC [AD015],Kd,[1]; [15],36.8 nM
CCTCTTCTGAAGTTAACATGTGCTCCGAGA [AD013],Kd,[1]; [15],47 nM
same,Kd,"KRAS G12D G12D, P01116-2; [15]",3.99 nM
CGCGTGTGTGACCTGAAGACGTATAACTTTTACAGAATCTACA [AD051],Kd,[1]; [16],5.95 nM
same,Kd,"KRAS G12D G12D, P01116-2; [16]",514 nM
CTGTACGCGTGTGTGACCTGAAGACGTATAACTTTTACAGAATCTACA [AD052],Kd,[1]; [17],3.06 nM
same,Kd,"KRAS G12D G12D, P01116-2; [17]",4.93 nM
GACTAGCATAAGTCCGGATGGCAGCTTTATGCCG [AD006],Kd,[1]; [18],939 nM
same,Kd,"KRAS G12D G12D, P01116-2; [18]",77.6 nM
GAGTGACCGTCTGCCTGACAACAACGAGTGCGAACTGTACTACTTGATAGAGACCCTC [AP023],Kd,[3]; [19],93.2 nM
same,Kd,[1]; [19],51.7 nM
GAGTGACCGTCTGCCTGACAACAACGAGTGCGAACTGTACTACTTGATAGAGACCCTCAGCCACACCACCAGCC [AP013],Kd,[3]; [19],74 nM
same,Kd,[1]; [19],19.1 nM
GAGTGACCGTCTGCCTGCCCCGCCTCTTCTGAAGTTAACATGTGCTCCGAGATGGTACAGCCACACCACCAGCC [AD009],Kd,[1]; [20],0.65 nM
same,Kd,"KRAS G12D G12D, P01116-2; [20]",0.51 nM
GAGTGACCGTCTGCCTGGACTAGCATAAGTCCGGATGGCAGCTTTATGCCGACCATCAGCCACACCACCAGCC [AD003],Kd,[1]; [21],13 nM
same,Kd,"KRAS G12D G12D, P01116-2; [21]",13.8 nM
GAGTGACCGTCTGCCTGGATATGCCTCTTCTGCAGTTACGGTGTGATCGCCCAATAGCAGCCACACCACCAGCC [TD009],Kd,"KRAS G12D G12D, P01116-2; Nap-dU at n (6) positions [Nap-dU at 20,22,26,28,29,31,36,37,42,44,47,55]",2480 nM
